Measured values published in the supplement of paper PMC6379048.

Assays:
Assay in all cases: Kd (EC50 corrected by depletion factor)
HNRNPAB = HNRNPAB (UniProt Q99729)
How it was run: (§1)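 Over three biological replicates and two independent experiments, proteins captured on NHS-Sepharose beads carrying 5′-amino-C6 RNA oligos were quantified by label-free LC-MS/MS and normalised to the control. Capture lasted 30 min at 4°C and followed a 1 h pre-incubation at 4°C of HEK293-FT lysate (2.5 mg protein/well) with the same oligos in free form (0 nM to 30 μM). EC50 was taken from a four-parameter log-logistic fit, and Kd was EC50 corrected by a protein-dependent depletion factor.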

HNRNPDL = molecular target: T1, HNRNPDL (UniProt O14979)
T1 sequence: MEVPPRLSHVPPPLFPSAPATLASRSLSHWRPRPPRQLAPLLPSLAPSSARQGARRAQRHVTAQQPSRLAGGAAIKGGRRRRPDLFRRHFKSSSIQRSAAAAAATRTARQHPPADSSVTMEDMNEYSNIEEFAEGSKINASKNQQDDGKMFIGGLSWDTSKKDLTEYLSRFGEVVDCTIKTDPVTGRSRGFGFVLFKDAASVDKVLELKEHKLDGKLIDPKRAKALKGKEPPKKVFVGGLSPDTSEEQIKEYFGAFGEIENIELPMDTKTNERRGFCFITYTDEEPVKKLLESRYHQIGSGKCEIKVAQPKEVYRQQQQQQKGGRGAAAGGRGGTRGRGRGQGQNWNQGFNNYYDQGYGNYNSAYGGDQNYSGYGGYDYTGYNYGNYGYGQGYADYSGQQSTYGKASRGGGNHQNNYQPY
How it was run: as §1

RBM4 = molecular target: T2, RBM4 (UniProt Q9BWF3)
T2 sequence: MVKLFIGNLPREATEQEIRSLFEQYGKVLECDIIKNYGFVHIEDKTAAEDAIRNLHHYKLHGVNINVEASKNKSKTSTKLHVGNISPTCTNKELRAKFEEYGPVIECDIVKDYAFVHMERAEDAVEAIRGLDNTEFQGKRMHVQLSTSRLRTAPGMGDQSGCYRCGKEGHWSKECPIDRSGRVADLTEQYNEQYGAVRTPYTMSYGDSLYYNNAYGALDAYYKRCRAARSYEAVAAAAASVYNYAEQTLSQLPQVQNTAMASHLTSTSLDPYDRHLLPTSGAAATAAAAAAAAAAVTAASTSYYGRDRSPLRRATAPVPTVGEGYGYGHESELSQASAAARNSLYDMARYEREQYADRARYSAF
How it was run: as §1

CMTR1 = molecular target: T3, CMTR1 (UniProt Q8N1G2)
T3 sequence: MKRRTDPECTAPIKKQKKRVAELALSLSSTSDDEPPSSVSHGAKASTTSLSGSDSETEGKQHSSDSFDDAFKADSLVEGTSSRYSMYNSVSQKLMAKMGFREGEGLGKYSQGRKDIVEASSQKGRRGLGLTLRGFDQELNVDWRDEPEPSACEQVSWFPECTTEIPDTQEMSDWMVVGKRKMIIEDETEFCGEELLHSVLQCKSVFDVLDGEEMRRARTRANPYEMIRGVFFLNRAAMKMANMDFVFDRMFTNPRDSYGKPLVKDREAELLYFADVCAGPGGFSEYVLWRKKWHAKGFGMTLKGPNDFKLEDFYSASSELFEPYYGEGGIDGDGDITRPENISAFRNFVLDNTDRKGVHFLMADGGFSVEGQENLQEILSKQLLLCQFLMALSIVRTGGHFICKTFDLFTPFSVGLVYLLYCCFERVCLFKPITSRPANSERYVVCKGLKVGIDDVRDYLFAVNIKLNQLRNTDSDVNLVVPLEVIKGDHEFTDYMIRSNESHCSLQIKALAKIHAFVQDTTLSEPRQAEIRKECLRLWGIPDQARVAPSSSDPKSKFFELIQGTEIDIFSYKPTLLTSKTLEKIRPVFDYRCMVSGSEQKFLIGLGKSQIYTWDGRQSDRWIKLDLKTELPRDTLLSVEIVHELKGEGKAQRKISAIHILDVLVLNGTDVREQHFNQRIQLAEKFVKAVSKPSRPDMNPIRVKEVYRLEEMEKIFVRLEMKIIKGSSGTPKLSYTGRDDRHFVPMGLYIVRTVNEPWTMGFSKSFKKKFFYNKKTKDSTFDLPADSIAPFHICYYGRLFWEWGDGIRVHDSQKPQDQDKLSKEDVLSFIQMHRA
How it was run: as §1

RPS20 = RPS20 (UniProt P60866)
How it was run: as §1

HNRNPAB, sequence (Q99729 whole entry): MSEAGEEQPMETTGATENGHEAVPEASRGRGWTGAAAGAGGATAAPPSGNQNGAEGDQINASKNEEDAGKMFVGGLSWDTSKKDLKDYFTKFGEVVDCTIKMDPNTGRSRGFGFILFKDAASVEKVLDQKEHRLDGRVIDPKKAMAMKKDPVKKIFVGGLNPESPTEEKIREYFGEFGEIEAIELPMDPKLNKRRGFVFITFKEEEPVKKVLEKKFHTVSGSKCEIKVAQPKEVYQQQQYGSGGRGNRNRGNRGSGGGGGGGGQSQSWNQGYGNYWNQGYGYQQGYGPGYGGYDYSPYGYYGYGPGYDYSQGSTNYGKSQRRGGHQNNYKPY

Row | Sequence | Kd (HNRNPAB) [nM] | Kd (HNRNPDL) [nM] | Kd (RBM4) [nM] | Kd (CMTR1) [nM] | Kd (RPS20) [nM]
1 | AAUAAA | 464 | 152 | 344 | 209 | 2300
2 | CUGUCCU | – | – | 131 | – | 59.8
3 | UAUUUAU | 2300 | 2360 | – | 591 | –
